# T1: sortilin (Homo sapiens, UniProt Q99523)
# T1 construct: They were transfected with plasmids either encoding wild type sortilin, or sortilin with a mutation that renders it endocytosis deficient; expressed in transfected cells; host or cells: HEK 293 cells, transient transfection (lipofectamine)
# T1 sequence (Q99523 78-831): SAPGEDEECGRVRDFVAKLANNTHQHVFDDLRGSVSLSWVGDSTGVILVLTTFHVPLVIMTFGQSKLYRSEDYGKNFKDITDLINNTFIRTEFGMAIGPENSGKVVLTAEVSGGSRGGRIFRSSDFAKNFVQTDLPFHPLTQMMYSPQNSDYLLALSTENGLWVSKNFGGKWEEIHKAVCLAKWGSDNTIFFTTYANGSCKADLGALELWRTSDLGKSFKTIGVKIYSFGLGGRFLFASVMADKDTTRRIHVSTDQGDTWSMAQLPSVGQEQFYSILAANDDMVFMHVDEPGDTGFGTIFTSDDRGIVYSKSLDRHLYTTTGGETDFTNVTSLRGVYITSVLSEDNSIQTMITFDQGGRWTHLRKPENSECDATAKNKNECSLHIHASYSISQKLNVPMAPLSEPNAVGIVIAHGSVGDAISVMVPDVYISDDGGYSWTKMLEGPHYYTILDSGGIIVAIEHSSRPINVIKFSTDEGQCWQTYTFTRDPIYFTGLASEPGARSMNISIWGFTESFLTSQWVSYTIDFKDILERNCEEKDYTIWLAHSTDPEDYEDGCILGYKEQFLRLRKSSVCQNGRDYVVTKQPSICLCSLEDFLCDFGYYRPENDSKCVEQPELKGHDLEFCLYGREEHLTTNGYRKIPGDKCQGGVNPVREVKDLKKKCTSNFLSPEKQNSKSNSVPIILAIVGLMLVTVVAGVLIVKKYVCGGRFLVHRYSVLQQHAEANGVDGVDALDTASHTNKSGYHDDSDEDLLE
# B1: GSTpro: fusion of Glutathione S-transferase (GST) merged at the C-terminal of GST to the pro part (19–121) of human proNGF (protein)
# chain: EPHSESNVPAGHTIPQAHWTKLQHSLDTALRRARSAPAAAIAARVAGQTRNITVDPRLFKKRRLRSPRVLFSTQPPREAADTQDLDFEVGGAAPFNRTHRSKR
# modifications: left off: GST, N-terminal, kept
# notes: fusion of Glutathione S-transferase (GST) merged at the C-terminal of GST to the pro part (19–121) of human proNGF
# Experiments:
# sortilin [1] = target: T1, sortilin; assay: GSTpro internalization: acid wash (PBS, pH 2.0) before fixation; format: cell-based; details: PBS pH 2.0 immediately before fixation
# Description: To further examine whether GSTpro was internalized, rather than only binding to the cell exterior, extracellularly bound ligand was removed by washing cells in PBS acidified to pH 2.0 with HCl supplemented with 0.03 M sucrose and 10% FCS immediately before fixation.
# It was not clear whether the detected ligand signal was only due to GSTpro binding to sortilin, or whether sortilin would be subsequently internalized. To determine if GSTpro was endocytosed after sortilin binding, we performed immunocytochemical staining with and without detergent (Fig. 6a, b, respectively). […] However, alternative interpretations are also possible (see discussion). […] We investigated if GSTpro was bound to the cell surface by using an acid wash to remove surface bound GSTpro. Cells were washed in PBS, pH 2.0 immediately before fixation, to remove extracellular ligand bound to receptors.
# [2] = tested on: empty vector control-transfected cells; assay: GSTpro signal in empty vector control-transfected HEK293 cells; format: cell-based, human; details: Fig. 3a, c, d
# Procedure: HEK 293 cells were grown in DMEM with 10% fetal bovine serum. They were transfected with plasmids either encoding wild type sortilin, or sortilin with a mutation that renders it endocytosis deficient, or an empty control vector according to manufacturer’s instructions using 20 µg lipofectamine (Thermo Fischer Scientific) with 8 µg DNA on […] per 6 cm, poly-lysine coated dish. The cells were initially plated into 24-well dishes after transfection. That intermediate step rendered more uniform cell numbers in the 96-well dishes that were used to run the actual assay. 24 h later, cells were split into black opaque-walled, clear-bottom 96 well dishes at 42000 cells in 80 µl medium/well. […]
# The fixed cells were washed with PBS for 15 min, followed by two 15 min washes with PBS with 0.1% Triton X-100. […] Wells to be evaluated for blocking of the sortilin-GSTpro interaction by antibodies were only stained with an antibody against the pro domain of proNGF in 10% FBS at a dilution of 1:1500 (Millipore (N-term) clone EPI318Y, Rabbit Monoclonal Antibody Catalog Number: #04-1142). […]
# The following day, wells were washed 3 × 15 min with PBS/0.1% Triton X-100. […] Cellular fluorescence was quantified using an array scanner and the “Neuronal Profiler” Bioapplication (Thermo Fisher Scientific) as described below. […]
# sortilin [3] = details: immobilized sortilin; ref Nykjaer et al. [2004]; read-out: affinity (immobilized sortilin); cited from earlier work
# Description: The assay was also used to screen for blocking of sortilin-GSTpro interaction with compound AF38469, which ...
molecule,measurement,setting,value
B1,fraction of GSTpro signal removed by acid wash (in words),sortilin [1],only removes a small fraction of the GSTpro signal
same,reduction of GSTpro signal by acid wash,sortilin [1]; data not shown,20%
same,GSTpro binding signal in empty vector cells (in words),[2],only very low signal
same,Kd,sortilin [3],8 nM

# Source: paper PMC5882628, “Development of a Cell-Based Assay to Assess Binding of the proNGF Prodomain to Sortilin” (Cellular and Molecular Neurobiology, 2017)
